Laboratory results: paper PMC3005984, “Identification and Partial Characterization of an L-Tyrosine Aminotransferase (TAT) from Arabidopsis thaliana” (Biochemistry Research International, 2010)

Assays:
Type in all cases: biochemical, Arabidopsis thaliana
[1] = substrate: N[C@@H](Cc1ccc(O)cc1)C(=O)O; assay: forward assay, 4-hydroxyphenylpyruvate at A331, nonlinear regression; settings: acceptor 2-ketoglutarate at saturation, 100 mM HEPES-NaOH pH 8.2, 30°C
Source text: forward assay, 4-hydroxyphenylpyruvate at A331, nonlinear regression on At5g36160 (L-tyrosine aminotransferase, TAT)

[2] = substrate: O=C(O)CCC(=O)C(=O)O; assay: forward assay, product absorbance, nonlinear regression; settings: amino donor at saturation (donor for this constant only in supplement), 100 mM HEPES-NaOH pH 8.2, 30°C
Source text: forward assay, product absorbance, nonlinear regression on At5g36160 (L-tyrosine aminotransferase, TAT)

[3] = substrate: N[C@@H](Cc1ccccc1)C(=O)O; assay: forward assay, phenylpyruvate at A320, nonlinear regression; settings: acceptor 2-ketoglutarate at saturation, 100 mM HEPES-NaOH pH 8.2, 30°C
Source text: forward assay, phenylpyruvate at A320, nonlinear regression on At5g36160 (L-tyrosine aminotransferase, TAT)

[4] = substrate: O=C(O)C(=O)Cc1ccccc1; assay: reverse assay, coupled to 2-ketoglutarate dehydrogenase, NADH at A340, nonlinear regression; settings: amino donor glutamate at saturation, 100 mM HEPES-NaOH pH 8.2, 30°C
Source text: (§1) reverse assay, coupled to 2-ketoglutarate dehydrogenase, NADH at A340, nonlinear regression on At5g36160 (L-tyrosine aminotransferase, TAT)

[5] = substrate: N[C@@H](CCC(=O)O)C(=O)O; assay: as above; settings: amino acceptor at saturation (acceptor for this constant only in supplement), 100 mM HEPES-NaOH pH 8.2, 30°C
Source text: as §1

[6] = substrate: O=C(O)C(=O)Cc1ccc(O)cc1; assay: as above; settings: amino donor glutamate at saturation, 100 mM HEPES-NaOH pH 8.2, 30°C
Source text: as §1

B1: At5g36160 (L-tyrosine aminotransferase, TAT) (Arabidopsis thaliana) (protein)
chain: MGENGAKRWNFGANEVVERSNSLTIRDYLNTLINCLDGGDVRPVIPLGHGDPSPFPSFRTDQAAVEAICDAVRSTKFNNYSSSSGVPVARKAVAEYLSSDLSYQISPNDVHITAGCVQAIEILISALAIPGANILLPRPTYPMYDSRAAFCQLEVRYFDLLPENGWDVDLDGVEALADDKTVAILVINPCNPCGNVFSRQHLQKIAETACKLGILVIADEVYDHFAFGDKPFVSMAEFAELVPVIVLGAISKRWFVPGWRLGWMVTLDPHGIMKDSGFVQTLINVVNMSTDPATFIQGAMPDIIGNTKEEFFSSKLEMVKKCAEICYEELMKIPCITCPCKPEGSMFTMVKLNFSLLEDISDDLDFCSKLAKEESMIILPGQAVGLKNWLRITFAVELELLIEGFSRLKNFTERHSKNQP
notes: full-length cDNA in pET30a, N-terminal His6 and S-tag kept, E. coli BL21-CodonPlus-RIPL, Talon purified, about 52 kDa on SDS-PAGE; EC 2.6.1.5
Km [1]: 190 ± 160 µM
kcat [1]: 0.08 s⁻¹
Km [2]: 1200 ± 270 µM
kcat [2]: 0.08 s⁻¹
Km [3]: 840 ± 200 µM
kcat [3]: 0.08 s⁻¹
Km [4]: 130 ± 60 µM
kcat [4]: 6.1 s⁻¹
Km [5]: 1400 ± 160 µM
kcat [5]: 6.1 s⁻¹
Km [6]: 220 ± 50 µM
kcat [6]: 6.1 s⁻¹
